Data: article PMC7946963, “Phosphorylation regulates the binding of autophagy receptors to FIP200 Claw domain for selective autophagy initiation” (Nature Communications, 2021)

Experiments:
Experiment in all cases: fluorescence polarisation titration
Settings in all cases: reference: unphosphorylated CCPG1 FIR2 peptide; sites S104
[1] = target: FIP200 (RB1CC1) Claw domain, 1490-1594 (UniProt Q8TDY2)
GABARAPL1 = GABARAPL1 (UniProt Q9H0R8)
GABARAPL2 = GABARAPL2 (UniProt P60520)
LC3A = LC3A (UniProt Q9H492)
LC3B = LC3B (UniProt Q9GZQ8)
LC3C = LC3C (UniProt Q9BXW4)

binding against the reference [1]: stronger
binding against the reference (GABARAPL1): stronger
binding against the reference (GABARAPL2): stronger
binding against the reference (LC3A): stronger
binding against the reference (LC3B): stronger
binding against the reference (LC3C): stronger
Substance: CCPG1 FIR2, 99-113 (from UniProt Q9ULG6) pS104 CCPG1 FIR2 peptide
